Experimental data published in PMC10066265, “Inhibitor-3 inhibits Protein Phosphatase 1 via a metal binding dynamic protein–protein interaction” (Nature Communications, 2023).
Positions count from the first letter of the chain named. Names may count otherwise. “And” between values parts separate entries of the source, which are not always exact repeats. Identical values can stand only once.

B1: CCCdeletion: I327-59 (Δ60-68) (domain or fragment, human, UniProt O60927 27-59, looked up)
chain: SLTIKLRKRKPEKKVEWTSDTVDNEHMGRRSSK
notes: also called I3 CCCdeletion; source: E. coli BL21 (DE3), purified (Ni-NTA, TEV cleavage, heat 95 °C, SEC); not shown: His6, N-terminal, cleaved; MBP, N-terminal, cleaved
B2: CCC_(deletion): I3_(27-59) (Δ60-68) (domain or fragment, human, UniProt O60927 27-59, looked up)
chain: B1 chain
notes: PPP1R11), human, residues 27-59; also called I3 CCC_(deletion) variant; I3_(27-68) CCC_(deletion); source: E. coli BL21 (DE3), purified (Ni-NTA, TEV, heat 95 °C, SEC); not shown: His6, N-terminal, cleaved; MBP, N-terminal, cleaved
B3: CCC_(deletion): I3_(27-59) (Δ60-68) (domain or fragment, human, UniProt O60927 27-59, looked up)
chain: B1 chain
notes: PPP1R11), human, residues 27-59; also called CCCdead: I327-59 (Δ60-62); I3 27-59 (CCC dead); source: E. coli BL21 (DE3), purified (Ni-NTA, TEV cleavage, heat, SEC); not shown: His6, N-terminal, cleaved; MBP, N-terminal, cleaved
B4: I3_(27-68) (I3 PP1 interaction domain) (domain or fragment, human, UniProt O60927 27-68, looked up)
chain: SLTIKLRKRKPEKKVEWTSDTVDNEHMGRRSSKCCCIYEKPR
notes: PPP1R11), human, residues 27-68; also called WT I3_(27-68); source: E. coli BL21 (DE3), purified (Ni-NTA, TEV, heat 95 °C, SEC); not shown: His6, N-terminal, cleaved; MBP, N-terminal, cleaved
B5: SCS: I3_(27-68) C60S/C62S (domain or fragment, human, UniProt O60927 27-68, looked up)
chain: B4 chain with C34S, C36S
notes: PPP1R11), human, residues 27-68; source: E. coli BL21 (DE3), purified (Ni-NTA, TEV, heat 95 °C, SEC); not shown: His6, N-terminal, cleaved; MBP, N-terminal, cleaved
B6: CSS: I3_(27-68) C61S/C62S (domain or fragment, human, UniProt O60927 27-68, looked up)
chain: B4 chain with C35S, C36S
notes: PPP1R11), human, residues 27-68, C61S/C62S; also called I3_27-68_CSS; source: E. coli BL21 (DE3), purified (Ni-NTA, TEV cleavage, heat, SEC); not shown: His6, N-terminal, cleaved; MBP, N-terminal, cleaved
B7: CCS: I3_(27-68) C62S (domain or fragment, human, UniProt O60927 27-68, looked up)
chain: B4 chain with C36S
notes: as for B5
B8: SSS: I3_(27-68) C60S/C61S/C62S (domain or fragment, human, UniProt O60927 27-68, looked up)
chain: B4 chain with C34S, C35S, C36S
notes: PPP1R11), human, residues 27-68, C60S/C61S/C62S; also called I3_27-68_60SSS62; I3_(27-68) SSS; source: E. coli BL21 (DE3), purified (Ni-NTA, TEV cleavage, heat, SEC); not shown: His6, N-terminal, cleaved; MBP, N-terminal, cleaved
B9: SCC: I3_(27-68) C60S (domain or fragment, human, UniProt O60927 27-68, looked up)
chain: B4 chain with C34S
notes: as for B5
B10: SCS: I3_(27-68) C60S/C62S (domain or fragment, human, UniProt O60927 27-68, looked up)
chain: B4 chain with C34S, C36S
notes: PPP1R11), human, residues 27-68, C60S/C62S; also called I3_27-68_SCS; source: E. coli BL21 (DE3), purified (Ni-NTA, TEV cleavage, heat, SEC); not shown: His6, N-terminal, cleaved; MBP, N-terminal, cleaved
B11: CSC: I3_(27-68) C61S (domain or fragment, human, UniProt O60927 27-68, looked up)
chain: B4 chain with C35S
notes: PPP1R11), human, residues 27-68, C61S; source: E. coli BL21 (DE3), purified (Ni-NTA, TEV cleavage, heat, SEC); not shown: His6, N-terminal, cleaved; MBP, N-terminal, cleaved
B12: IY: I3_(27-68) I63A/Y64A (domain or fragment, human, UniProt O60927 27-68, looked up)
chain: B4 chain with I37A, Y38A
notes: PPP1R11), human, residues 27-68; also called I3_(27-68) IY; source: E. coli BL21 (DE3), purified (Ni-NTA, TEV, heat 95 °C, SEC); not shown: His6, N-terminal, cleaved; MBP, N-terminal, cleaved
B13: SSC: I3_(27-68) C60S/C61S (domain or fragment, human, UniProt O60927 27-68, looked up)
chain: B4 chain with C34S, C35S
notes: as for B5
B14: CSS: I3_(27-68) C61S/C62S (domain or fragment, human, UniProt O60927 27-68, looked up)
chain: B4 chain with C35S, C36S
notes: as for B5
B15: CCS: I3_(27-68) C62S (domain or fragment, human, UniProt O60927 27-68, looked up)
chain: B4 chain with C36S
notes: PPP1R11), human, residues 27-68, C62S; source: E. coli BL21 (DE3), purified (Ni-NTA, TEV cleavage, heat, SEC); not shown: His6, N-terminal, cleaved; MBP, N-terminal, cleaved
B16: CSC: I3_(27-68) C61S (domain or fragment, human, UniProt O60927 27-68, looked up)
chain: B4 chain with C35S
notes: as for B5
B17: SSS: I3_(27-68) C60S/C61S/C62S (domain or fragment, human, UniProt O60927 27-68, looked up)
chain: B4 chain with C34S, C35S, C36S
notes: PPP1R11), human, residues 27-68; also called I3_(27-68)SSS; I3_(27-68) SSS; source: E. coli BL21 (DE3), purified (Ni-NTA, TEV, heat 95 °C, SEC); not shown: His6, N-terminal, cleaved; MBP, N-terminal, cleaved
B18: SSC: I3_(27-68) C60S/C61S (domain or fragment, human, UniProt O60927 27-68, looked up)
chain: B4 chain with C34S, C35S
notes: PPP1R11), human, residues 27-68, C60S/C61S; also called I3_27-68_SSC; source: E. coli BL21 (DE3), purified (Ni-NTA, TEV cleavage, heat, SEC); not shown: His6, N-terminal, cleaved; MBP, N-terminal, cleaved
B19: IY: I3_(27-68) I63A/Y64A (domain or fragment, human, UniProt O60927 27-68, looked up)
chain: B4 chain with I37A, Y38A
notes: PPP1R11), human, residues 27-68, I63A/Y64A; also called I3_(27-68) IY; source: E. coli BL21 (DE3), purified (Ni-NTA, TEV cleavage, heat, SEC); not shown: His6, N-terminal, cleaved; MBP, N-terminal, cleaved

Assays:
[1] = biological target: T1, PP1α7-330 (UniProt P62136 7-330); assay: SPR; His6-PP1 captured on a Ni-NTA sensor chip (NiHC200M), I3 variants injected; 25 °C; 20 mM Tris pH 8.0, 500 mM NaCl, 1 mM MnCl2, 0.5 mM TCEP, 0.05% Tween-20; one-to-one one-state or one-to-one two-state fit; details: both partners purified
T1 construct: Protein Phosphatase 1 alpha catalytic subunit, residues 7-330; For SPR the His6-tagged PP1 was captured on a Ni-NTA chip; also called Protein Phosphatase 1; PP17-330; source: bacterial expression as previously described, purified (Ni-NTA, SEC)
T1 sequence (P62136 7-330): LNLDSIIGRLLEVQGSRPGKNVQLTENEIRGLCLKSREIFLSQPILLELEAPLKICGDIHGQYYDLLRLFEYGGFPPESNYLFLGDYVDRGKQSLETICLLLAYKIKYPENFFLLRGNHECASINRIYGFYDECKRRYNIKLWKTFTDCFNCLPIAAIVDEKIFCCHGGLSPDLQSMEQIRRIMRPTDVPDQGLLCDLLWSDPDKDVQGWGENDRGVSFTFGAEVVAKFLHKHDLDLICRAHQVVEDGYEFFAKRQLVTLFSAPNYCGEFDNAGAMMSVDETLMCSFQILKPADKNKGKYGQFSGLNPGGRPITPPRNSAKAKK

[2] = biological target: T2, His6-PP1α_(7-330) (UniProt P62136 7-330); assay: cell-based or functional assay
T2 sequence (P62136 7-330): as above

[3] = biological target: T2, His6-PP1α_(7-330); assay: SPR; His6-PP1 captured on a Ni-NTA sensorchip (NiHC200M), I3 variants injected; 25 °C; 20 mM Tris pH 8.0, 500 mM NaCl, 1 mM MnCl2, 0.5 mM TCEP, 0.05% Tween-20; one-to-one one state or one-to-one two state model; details: both partners purified
[4] = biological target: T3, PP1α_(7-330) (UniProt P62136 7-330); assay: SPR; His6-PP1 captured on Ni-NTA chip (NiHC200M), I3 variants injected; 25 °C; 20 mM Tris pH 8.0, 500 mM NaCl, 1 mM MnCl2, 0.5 mM TCEP, 0.05% Tween-20; one-to-one one state or one-to-one two state model (TraceDrawer); details: both partners purified
T3 construct: Protein Phosphatase 1 alpha (PP1α), residues 7-330; His6-PP1 was captured on the Ni-NTA sensor chip as the SPR ligand; Mn2+ in all buffers; also called Protein Phosphatase 1; His6-PP1; source: E. coli, purified (Ni-NTA, SEC)
T3 sequence (P62136 7-330): as above

[5] = biological target: PP1α7-330 (UniProt P62136)
PP1α7-330 (UniProt P62136), sequence (P62136 7-330): as above

[6] = biological target: T4, His6-PP1α_(7-330) C273S (UniProt P62136 7-330, C273S); assay: cell-based or functional assay
T4 sequence (P62136 7-330 C273S): as the sequence (P62136 7-330) above, with C267S counted along it

[7] = biological target: T2, His6-PP1α_(7-330); assay: SPR; His6-PP1 captured on a Ni-NTA sensorchip, I3_(27-68) injected; pH = 7.0 (Table 1); two state fit; details: both partners purified
[8] = biological target: T2, His6-PP1α_(7-330); assay: SPR; His6-PP1 captured on a Ni-NTA sensorchip, I3_(27-68) injected; pH = 6.5 (Table 1); two state fit; pH 6.5; details: both partners purified
[9] = biological target: T2, His6-PP1α_(7-330); assay: SPR; His6-PP1 captured on a Ni-NTA sensorchip, I3_(27-68) injected; pH = 7.5 (Table 1); two state fit; pH 7.5; details: both partners purified
[10] = biological target: T4, His6-PP1α_(7-330) C273S; assay: SPR; His6-PP1 captured on a Ni-NTA sensorchip (NiHC200M), I3 variants injected; 25 °C; 20 mM Tris pH 8.0, 500 mM NaCl, 1 mM MnCl2, 0.5 mM TCEP, 0.05% Tween-20; one-to-one one state or one-to-one two state model; details: both partners purified
[11] = biological target: T5, His6-PP1α_(7-330) H66K (UniProt P62136 7-330, H66K); assay: as above; details: both partners purified
T5 construct: Protein Phosphatase 1 alpha (PP1α), residues 7-330, H66K; also called PP1 H66K; PP1_(7-330) H66K; source: bacterial expression (E. coli) as previously described, purified (Ni-NTA, SEC)
T5 sequence (P62136 7-330 H66K): as the sequence (P62136 7-330) above, with H60K counted along it

[12] = biological target: T6, His6-PP1α_(7-330) H248N (UniProt P62136 7-330, H248N); assay: as above; details: both partners purified
T6 construct: Protein Phosphatase 1 alpha (PP1α), residues 7-330, H248N; also called PP1_(7-330) H248N; source: bacterial expression (E. coli) as previously described, purified (Ni-NTA, SEC)
T6 sequence (P62136 7-330 H248N): as the sequence (P62136 7-330) above, with H242N counted along it

[13] = biological target: T2, His6-PP1α_(7-330); assay: as above; details: both partners purified; remark: listed apart in the source

| Binder | IC50 of PP1 inhibition (dephosphorylation of the H3pT3 peptide, released Pi) [2] | Kd [3] | Kd [4] | also measured |
| --- | --- | --- | --- | --- |
| B1 |  |  |  | koff [1]: 0.0766 s⁻¹; kon [1]: 210000 M⁻¹ s⁻¹ |
| B2 | 0.422 µM | 0.376 ± 0.047 µM |  |  |
| B3 |  |  | 0.447 µM and 0.329 µM and 0.352 µM | koff [4]: 0.0749 s⁻¹ and 0.0798 s⁻¹ and 0.0752 s⁻¹ and 0.0766 s⁻¹; kon [4]: 168000 M⁻¹ s⁻¹ and 242000 M⁻¹ s⁻¹ and 213000 M⁻¹ s⁻¹ and 208000 M⁻¹ s⁻¹ |
| SLTIKLRKRKPEKKVEWTSDTVDNEHMGRRSSKCCCIYEKPR (domain or fragment) [I327-68 (I3 PP1 interaction domain)] |  |  |  | Supplementary Figure 5A: IC50 of PP1 inhibition by I3 27-68 (dephosphorylation of the H3pT3 peptide) in the presence of 1.3 mM DTT; I3 exchanged into buffer without 0.5 mM TCEP [5]: 0.07 µM |
| B4 | 0.075 µM | 0.0093 ± 0.0011 µM |  | IC50 of PP1 C273S inhibition (dephosphorylation of the H3pT3 peptide, released Pi; 1.33 mM DTT) [6]: 0.085 µM; Kd [7]: 0.0161 ± 0.0011 µM; Kd [8]: 0.017 ± 0.0008 µM; Kd [9]: 0.009 ± 0.0006 µM; Kd [10]: 0.0161 ± 0.0007 µM; Kd [11]: 0.0059 ± 0.0006 µM; Kd [12]: 0.0066 ± 0.0017 µM |
| B5 | 0.179 µM | 0.054 ± 0.009 µM |  |  |
| B6 |  |  | 0.0207 µM and 0.0216 µM |  |
| B7 | 0.171 µM | 0.0206 ± 0.0051 µM |  |  |
| B8 |  |  | 0.409 µM and 0.421 µM and 0.406 µM | koff [4]: 0.0719 s⁻¹ and 0.0774 s⁻¹ and 0.0728 s⁻¹ and 0.074 s⁻¹; kon [4]: 176000 M⁻¹ s⁻¹ and 184000 M⁻¹ s⁻¹ and 179000 M⁻¹ s⁻¹ and 180000 M⁻¹ s⁻¹ |
| B9 | 0.243 µM | 0.0217 ± 0.0031 µM |  |  |
| B10 |  |  | 0.0455 µM and 0.0634 µM and 0.0531 µM |  |
| B11 |  |  | 0.0201 µM and 0.0187 µM and 0.0175 µM |  |
| B12 |  | 0.0156 ± 0.0024 µM |  |  |
| B13 | 0.349 µM | 0.0868 ± 0.0038 µM |  | Kd [13]: 0.0866 µM |
| B14 | 0.153 µM | 0.0212 ± 0.0006 µM |  |  |
| B15 |  |  | 0.0161 µM and 0.0174 µM and 0.0283 µM |  |
| B16 | 0.158 µM | 0.0188 ± 0.0009 µM |  |  |
| B17 | 0.38 µM | 0.412 ± 0.006 µM |  |  |
| B18 |  |  | 0.088 µM and 0.0811 µM and 0.0883 µM and 0.0896 µM |  |
| B19 |  |  | 0.019 µM and 0.0131 µM and 0.0143 µM and 0.0155 µM |  |
